Reference: patent US20140087995A1 (published 2014)
Numbered stars: 1 amine (or outer) side, 2 acyl side, 3 side chain; on linkers, the order of the positions; unused ones are H or OH. Bridge positions count the residues as written; N and C are the ends. Side chains are listed from the residue outwards. Ends that are not written are not given here. * marks the point of attachment. C20 diacid = O=C(O)CCCCCCCCCCCCCCCCCCC(=O)*; γGlu = O=C(O)[C@H](CCC(=O)[*:2])N[*:1]; AEEA = NCCOCCOCC(=O)O

B1: N^ε1-[(4S)-4-carboxy-4-[[(4S)-4-carboxy-4-(19-carboxynonadecanoylamino)butanoyl]amino]butanoyl]-[Asp14,Arg17,Pro22,Pro26,Asp35]-h-amylin (peptide)
peptide: K([γGlu-γGlu-C20 diacid])CNTATCATQRLADFLRHSSNPFGAPLSSTNVGSDTY-NH2
modifications: disulfide 2-7; N-terminus assumed
SMILES: CC(C)C[C@H](NC(=O)[C@H](CCCNC(=N)N)NC(=O)[C@H](CCC(N)=O)NC(=O)[C@@H](NC(=O)[C@H](C)NC(=O)[C@@H]1CSSC[C@H](NC(=O)[C@@H](N)CCCCNC(=O)CC[C@H](NC(=O)CC[C@H](NC(=O)CCCCCCCCCCCCCCCCCCC(=O)O)C(=O)O)C(=O)O)C(=O)N[C@@H](CC(N)=O)C(=O)N[C@@H]([C@@H](C)O)C(=O)N[C@@H](C)C(=O)N[C@@H]([C@@H](C)O)C(=O)N1)[C@@H](C)O)C(=O)N[C@@H](C)C(=O)N[C@@H](CC(=O)O)C(=O)N[C@@H](Cc1ccccc1)C(=O)N[C@@H](CC(C)C)C(=O)N[C@@H](CCCNC(=N)N)C(=O)N[C@@H](Cc1c[nH]cn1)C(=O)N[C@@H](CO)C(=O)N[C@@H](CO)C(=O)N[C@@H](CC(N)=O)C(=O)N1CCC[C@H]1C(=O)N[C@@H](Cc1ccccc1)C(=O)NCC(=O)N[C@@H](C)C(=O)N1CCC[C@H]1C(=O)N[C@@H](CC(C)C)C(=O)N[C@@H](CO)C(=O)N[C@@H](CO)C(=O)N[C@H](C(=O)N[C@@H](CC(N)=O)C(=O)N[C@H](C(=O)NCC(=O)N[C@@H](CO)C(=O)N[C@@H](CC(=O)O)C(=O)N[C@H](C(=O)N[C@@H](Cc1ccc(O)cc1)C(N)=O)[C@@H](C)O)C(C)C)[C@@H](C)O
notes: also called compound 3
B2: N{Alpha-1}-[(4S)-4-carboxy-4-(19-carboxynonadecanoylamino)butanoyl]-[Glu14,Arg17,Pro21,Pro27,Lys34]-h-amylin (peptide)
peptide: {C20 diacid-γGlu}-KCNTATCATQRLAEFLRHSSPNFGAIPSSTNVGKNTY-NH2
modifications: disulfide 2-7
SMILES: CC[C@H](C)[C@H](NC(=O)[C@H](C)NC(=O)CNC(=O)[C@H](Cc1ccccc1)NC(=O)[C@H](CC(N)=O)NC(=O)[C@@H]1CCCN1C(=O)[C@H](CO)NC(=O)[C@H](CO)NC(=O)[C@H](Cc1c[nH]cn1)NC(=O)[C@H](CCCNC(=N)N)NC(=O)[C@H](CC(C)C)NC(=O)[C@H](Cc1ccccc1)NC(=O)[C@H](CCC(=O)O)NC(=O)[C@H](C)NC(=O)[C@H](CC(C)C)NC(=O)[C@H](CCCNC(=N)N)NC(=O)[C@H](CCC(N)=O)NC(=O)[C@@H](NC(=O)[C@H](C)NC(=O)[C@@H]1CSSC[C@H](NC(=O)[C@H](CCCCN)NC(=O)CC[C@H](NC(=O)CCCCCCCCCCCCCCCCCCC(=O)O)C(=O)O)C(=O)N[C@@H](CC(N)=O)C(=O)N[C@@H]([C@@H](C)O)C(=O)N[C@@H](C)C(=O)N[C@@H]([C@@H](C)O)C(=O)N1)[C@@H](C)O)C(=O)N1CCC[C@H]1C(=O)N[C@@H](CO)C(=O)N[C@@H](CO)C(=O)N[C@H](C(=O)N[C@@H](CC(N)=O)C(=O)N[C@H](C(=O)NCC(=O)N[C@@H](CCCCN)C(=O)N[C@@H](CC(N)=O)C(=O)N[C@H](C(=O)N[C@@H](Cc1ccc(O)cc1)C(N)=O)[C@@H](C)O)C(C)C)[C@@H](C)O
notes: also called compound 36
B3: N^α1-[2-[2-[2-[[2-[2-[2-[[(4S)-4-carboxy-4-(19-carboxynonadecanoylamino)butanoyl]amino]ethoxy]ethoxy]acetyl]amino]ethoxy]ethoxy]acetyl]-[Arg17,Pro21,Pro27]-h-am … (peptide)
peptide: KCNTATCATQRLANFLRHSSPNFGAIPSSTNVGSNTY
modifications: C20 diacid-gGlu-2xOEG on the alpha amino group of the N-terminal Lys1; disulfide Cys2-Cys7; C-terminal amide
notes: also called compound 24
B4: N^ε1-[2-[2-[2-(19-carboxynonadecanoylamino)ethoxy]ethoxy]acetyl]-[Arg17,Pro21,Pro27]-h-amylin (peptide)
peptide: K([AEEA-C20 diacid])CNTATCATQRLANFLRHSSPNFGAIPSSTNVGSNTY-NH2
modifications: disulfide 2-7; N-terminus assumed
SMILES: CC[C@H](C)[C@H](NC(=O)[C@H](C)NC(=O)CNC(=O)[C@H](Cc1ccccc1)NC(=O)[C@H](CC(N)=O)NC(=O)[C@@H]1CCCN1C(=O)[C@H](CO)NC(=O)[C@H](CO)NC(=O)[C@H](Cc1c[nH]cn1)NC(=O)[C@H](CCCNC(=N)N)NC(=O)[C@H](CC(C)C)NC(=O)[C@H](Cc1ccccc1)NC(=O)[C@H](CC(N)=O)NC(=O)[C@H](C)NC(=O)[C@H](CC(C)C)NC(=O)[C@H](CCCNC(=N)N)NC(=O)[C@H](CCC(N)=O)NC(=O)[C@@H](NC(=O)[C@H](C)NC(=O)[C@@H]1CSSC[C@H](NC(=O)[C@@H](N)CCCCNC(=O)COCCOCCNC(=O)CCCCCCCCCCCCCCCCCCC(=O)O)C(=O)N[C@@H](CC(N)=O)C(=O)N[C@@H]([C@@H](C)O)C(=O)N[C@@H](C)C(=O)N[C@@H]([C@@H](C)O)C(=O)N1)[C@@H](C)O)C(=O)N1CCC[C@H]1C(=O)N[C@@H](CO)C(=O)N[C@@H](CO)C(=O)N[C@H](C(=O)N[C@@H](CC(N)=O)C(=O)N[C@H](C(=O)NCC(=O)N[C@@H](CO)C(=O)N[C@@H](CC(N)=O)C(=O)N[C@H](C(=O)N[C@@H](Cc1ccc(O)cc1)C(N)=O)[C@@H](C)O)C(C)C)[C@@H](C)O
notes: also called compound 43
B5: N^ε1-[2-[2-[2-[[(4S)-4-carboxy-4-(19-carboxynonadecanoylamino)butanoyl]amino]ethoxy]ethoxy]acetyl]-[Arg17,Pro21,Pro27]-h-amylin (peptide)
peptide: K([AEEA-γGlu-C20 diacid])CNTATCATQRLANFLRHSSPNFGAIPSSTNVGSNTY-NH2
modifications: disulfide 2-7; N-terminus assumed
SMILES: CC[C@H](C)[C@H](NC(=O)[C@H](C)NC(=O)CNC(=O)[C@H](Cc1ccccc1)NC(=O)[C@H](CC(N)=O)NC(=O)[C@@H]1CCCN1C(=O)[C@H](CO)NC(=O)[C@H](CO)NC(=O)[C@H](Cc1c[nH]cn1)NC(=O)[C@H](CCCNC(=N)N)NC(=O)[C@H](CC(C)C)NC(=O)[C@H](Cc1ccccc1)NC(=O)[C@H](CC(N)=O)NC(=O)[C@H](C)NC(=O)[C@H](CC(C)C)NC(=O)[C@H](CCCNC(=N)N)NC(=O)[C@H](CCC(N)=O)NC(=O)[C@@H](NC(=O)[C@H](C)NC(=O)[C@@H]1CSSC[C@H](NC(=O)[C@@H](N)CCCCNC(=O)COCCOCCNC(=O)CC[C@H](NC(=O)CCCCCCCCCCCCCCCCCCC(=O)O)C(=O)O)C(=O)N[C@@H](CC(N)=O)C(=O)N[C@@H]([C@@H](C)O)C(=O)N[C@@H](C)C(=O)N[C@@H]([C@@H](C)O)C(=O)N1)[C@@H](C)O)C(=O)N1CCC[C@H]1C(=O)N[C@@H](CO)C(=O)N[C@@H](CO)C(=O)N[C@H](C(=O)N[C@@H](CC(N)=O)C(=O)N[C@H](C(=O)NCC(=O)N[C@@H](CO)C(=O)N[C@@H](CC(N)=O)C(=O)N[C@H](C(=O)N[C@@H](Cc1ccc(O)cc1)C(N)=O)[C@@H](C)O)C(C)C)[C@@H](C)O
notes: also called compound 41
B6: N^α1-[(4S)-4-carboxy-4-(19-carboxynonadecanoylamino)butanoyl]-[Glu14,Arg17,Pro21,Pro25,Pro28,Pro29]-h-amylin (peptide)
peptide: {C20 diacid-γGlu}-KCNTATCATQRLAEFLRHSSPNFGPILPPTNVGSNTY-NH2
modifications: disulfide 2-7
SMILES: CC[C@H](C)[C@H](NC(=O)[C@@H]1CCCN1C(=O)CNC(=O)[C@H](Cc1ccccc1)NC(=O)[C@H](CC(N)=O)NC(=O)[C@@H]1CCCN1C(=O)[C@H](CO)NC(=O)[C@H](CO)NC(=O)[C@H](Cc1c[nH]cn1)NC(=O)[C@H](CCCNC(=N)N)NC(=O)[C@H](CC(C)C)NC(=O)[C@H](Cc1ccccc1)NC(=O)[C@H](CCC(=O)O)NC(=O)[C@H](C)NC(=O)[C@H](CC(C)C)NC(=O)[C@H](CCCNC(=N)N)NC(=O)[C@H](CCC(N)=O)NC(=O)[C@@H](NC(=O)[C@H](C)NC(=O)[C@@H]1CSSC[C@H](NC(=O)[C@H](CCCCN)NC(=O)CC[C@H](NC(=O)CCCCCCCCCCCCCCCCCCC(=O)O)C(=O)O)C(=O)N[C@@H](CC(N)=O)C(=O)N[C@@H]([C@@H](C)O)C(=O)N[C@@H](C)C(=O)N[C@@H]([C@@H](C)O)C(=O)N1)[C@@H](C)O)C(=O)N[C@@H](CC(C)C)C(=O)N1CCC[C@H]1C(=O)N1CCC[C@H]1C(=O)N[C@H](C(=O)N[C@@H](CC(N)=O)C(=O)N[C@H](C(=O)NCC(=O)N[C@@H](CO)C(=O)N[C@@H](CC(N)=O)C(=O)N[C@H](C(=O)N[C@@H](Cc1ccc(O)cc1)C(N)=O)[C@@H](C)O)C(C)C)[C@@H](C)O
notes: also called compound 6

These binders were tested against T1, human calcitonin receptor (human, UniProt P30988 25-474) (assay: SPA competition against 125I-calcitonin, membranes with human calcitonin receptor (Assay VII)).
T1 construct: whole, on cells; Used as cell membranes prepared from the transfected BHK cells (Assay VII), not as intact cells; also called hCTR; hCT
T1 sequence (looked up): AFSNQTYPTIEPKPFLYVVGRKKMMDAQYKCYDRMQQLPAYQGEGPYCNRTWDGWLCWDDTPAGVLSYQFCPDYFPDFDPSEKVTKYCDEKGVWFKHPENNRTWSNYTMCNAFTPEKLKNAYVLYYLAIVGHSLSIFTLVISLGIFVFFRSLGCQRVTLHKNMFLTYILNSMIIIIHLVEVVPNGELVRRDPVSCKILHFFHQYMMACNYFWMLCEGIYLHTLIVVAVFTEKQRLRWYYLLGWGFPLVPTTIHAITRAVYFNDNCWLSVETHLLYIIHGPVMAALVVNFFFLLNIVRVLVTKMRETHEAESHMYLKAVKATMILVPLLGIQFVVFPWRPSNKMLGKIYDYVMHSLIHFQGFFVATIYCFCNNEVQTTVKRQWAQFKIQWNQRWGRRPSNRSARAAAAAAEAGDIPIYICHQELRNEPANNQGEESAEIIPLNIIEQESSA
Outline: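 BHK hCTR membranes 35 ng/μL + SPA beads 0.05 mg/well; buffer 50 mM Hepes pH 7.4, 1 mM CaCl2, 5 mM MgCl₂, 0.1% OA, 0.02% Tween20. 120 min, 25° C., shaking. Scintillation count; IC50 by one-site binding competition.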
In the case of B1, the IC50 is reported as 19.5 nM.
B2 was tested, and the IC50 was 6.3 nM.
In the case of B3, the IC50 is reported as 102 nM.
B4 gave an IC50 of 2.64 nM.
Work on B5 yielded an IC50 of 21.3 nM.
With B6 the IC50 was 19.9 nM.
